Experimental data from US20070148164A1 (Biogen, published 2007).

B1: A287D (antibody)
heavy: not shown
light: DIQMTQSPSSLSASVGDRVTITCKAGQDIKSYLSWYQQKPGKAPKLLIYYATRLADGVPSRFSGSGSGTDYTLTISSLQPEDFATYYCLQHGESPWTFGGGTKLEIKRTVAAPSVFIFPPSDEQLKSGTASVVCLLNNFYPREAKVQWKVDNALQSGNSQESVTEQDSKDSTYSLSSTLTLSKADYEKHKVYACEVTHQGLSSPVTKSFNRGEC
notes: EU numbering, EU N297 = residue 300 of the chain; the sheets number them 2 and 4; also called huCBE11 altered antibody with mutation A287D; copies: 2 + 2
B2: huCBE11 altered antibody with mutation M252T (antibody, human IgG1, kappa)
heavy: not shown
light: DIQMTQSPSSLSASVGDRVTITCKAGQDIKSYLSWYQQKPGKAPKLLIYYATRLADGVPSRFSGSGSGTDYTLTISSLQPEDFATYYCLQHGESPWTFGGGTKLEIKRTVAAPSVFIFPPSDEQLKSGTASVVCLLNNFYPREAKVQWKVDNALQSGNSQESVTEQDSKDSTYSLSSTLTLSKADYEKHKVYACEVTHQGLSSPVTKSFNRGEC
notes: Position is in EU numbering
B3: V284D (antibody, human IgG1, kappa)
heavy: not shown
light: DIQMTQSPSSLSASVGDRVTITCKAGQDIKSYLSWYQQKPGKAPKLLIYYATRLADGVPSRFSGSGSGTDYTLTISSLQPEDFATYYCLQHGESPWTFGGGTKLEIKRTVAAPSVFIFPPSDEQLKSGTASVVCLLNNFYPREAKVQWKVDNALQSGNSQESVTEQDSKDSTYSLSSTLTLSKADYEKHKVYACEVTHQGLSSPVTKSFNRGEC
notes: EU numbering, EU N297 = residue 300 of the chain; the sheets number them 2 and 4; also called huCBE11 altered antibody with mutation V284D; copies: 2 + 2
B4: V279E (antibody, human IgG1, kappa)
heavy: not shown
light: DIQMTQSPSSLSASVGDRVTITCKAGQDIKSYLSWYQQKPGKAPKLLIYYATRLADGVPSRFSGSGSGTDYTLTISSLQPEDFATYYCLQHGESPWTFGGGTKLEIKRTVAAPSVFIFPPSDEQLKSGTASVVCLLNNFYPREAKVQWKVDNALQSGNSQESVTEQDSKDSTYSLSSTLTLSKADYEKHKVYACEVTHQGLSSPVTKSFNRGEC
notes: EU numbering, EU N297 = residue 300 of the chain; the sheets number them 2 and 4; also called huCBE11 altered antibody with mutation V279E; copies: 2 + 2
B5: H285F (antibody)
heavy: not shown
light: DIQMTQSPSSLSASVGDRVTITCKAGQDIKSYLSWYQQKPGKAPKLLIYYATRLADGVPSRFSGSGSGTDYTLTISSLQPEDFATYYCLQHGESPWTFGGGTKLEIKRTVAAPSVFIFPPSDEQLKSGTASVVCLLNNFYPREAKVQWKVDNALQSGNSQESVTEQDSKDSTYSLSSTLTLSKADYEKHKVYACEVTHQGLSSPVTKSFNRGEC
notes: EU numbering, EU N297 = residue 300 of the chain; the sheets number them 2 and 4; also called huCBE11 altered antibody with mutation H285F; copies: 2 + 2
B6: S304E (antibody, human IgG1, kappa)
heavy: not shown
light: DIQMTQSPSSLSASVGDRVTITCKAGQDIKSYLSWYQQKPGKAPKLLIYYATRLADGVPSRFSGSGSGTDYTLTISSLQPEDFATYYCLQHGESPWTFGGGTKLEIKRTVAAPSVFIFPPSDEQLKSGTASVVCLLNNFYPREAKVQWKVDNALQSGNSQESVTEQDSKDSTYSLSSTLTLSKADYEKHKVYACEVTHQGLSSPVTKSFNRGEC
notes: EU numbering, EU N297 = residue 300 of the chain; the sheets number them 2 and 4; also called huCBE11 altered antibody with mutation S304E; copies: 2 + 2
B7: huCBE11 altered antibody with mutation V282E (antibody, human IgG1, kappa)
heavy: not shown
light: DIQMTQSPSSLSASVGDRVTITCKAGQDIKSYLSWYQQKPGKAPKLLIYYATRLADGVPSRFSGSGSGTDYTLTISSLQPEDFATYYCLQHGESPWTFGGGTKLEIKRTVAAPSVFIFPPSDEQLKSGTASVVCLLNNFYPREAKVQWKVDNALQSGNSQESVTEQDSKDSTYSLSSTLTLSKADYEKHKVYACEVTHQGLSSPVTKSFNRGEC
notes: Position is in EU numbering
B8: H285D (antibody, human IgG1, kappa)
heavy: not shown
light: DIQMTQSPSSLSASVGDRVTITCKAGQDIKSYLSWYQQKPGKAPKLLIYYATRLADGVPSRFSGSGSGTDYTLTISSLQPEDFATYYCLQHGESPWTFGGGTKLEIKRTVAAPSVFIFPPSDEQLKSGTASVVCLLNNFYPREAKVQWKVDNALQSGNSQESVTEQDSKDSTYSLSSTLTLSKADYEKHKVYACEVTHQGLSSPVTKSFNRGEC
notes: EU numbering, EU N297 = residue 300 of the chain; the sheets number them 2 and 4; also called huCBE11 altered antibody with mutation H285D; copies: 2 + 2
B9: huCBE11 altered antibody with mutation M252S (antibody, human IgG1, kappa)
heavy: not shown
light: DIQMTQSPSSLSASVGDRVTITCKAGQDIKSYLSWYQQKPGKAPKLLIYYATRLADGVPSRFSGSGSGTDYTLTISSLQPEDFATYYCLQHGESPWTFGGGTKLEIKRTVAAPSVFIFPPSDEQLKSGTASVVCLLNNFYPREAKVQWKVDNALQSGNSQESVTEQDSKDSTYSLSSTLTLSKADYEKHKVYACEVTHQGLSSPVTKSFNRGEC
notes: Position is in EU numbering
B10: E345R (antibody)
heavy: not shown
light: DIQMTQSPSSLSASVGDRVTITCKAGQDIKSYLSWYQQKPGKAPKLLIYYATRLADGVPSRFSGSGSGTDYTLTISSLQPEDFATYYCLQHGESPWTFGGGTKLEIKRTVAAPSVFIFPPSDEQLKSGTASVVCLLNNFYPREAKVQWKVDNALQSGNSQESVTEQDSKDSTYSLSSTLTLSKADYEKHKVYACEVTHQGLSSPVTKSFNRGEC
notes: EU numbering, EU N297 = residue 300 of the chain; the sheets number them 2 and 4; also called huCBE11 altered antibody with mutation E345R; copies: 2 + 2
B11: huCBE11 altered antibody with mutation K290D (antibody, human IgG1, kappa)
heavy: not shown
light: DIQMTQSPSSLSASVGDRVTITCKAGQDIKSYLSWYQQKPGKAPKLLIYYATRLADGVPSRFSGSGSGTDYTLTISSLQPEDFATYYCLQHGESPWTFGGGTKLEIKRTVAAPSVFIFPPSDEQLKSGTASVVCLLNNFYPREAKVQWKVDNALQSGNSQESVTEQDSKDSTYSLSSTLTLSKADYEKHKVYACEVTHQGLSSPVTKSFNRGEC
notes: Position is in EU numbering
B12: huCBE11 altered antibody with mutation S304D (antibody, human IgG1, kappa)
heavy: not shown
light: DIQMTQSPSSLSASVGDRVTITCKAGQDIKSYLSWYQQKPGKAPKLLIYYATRLADGVPSRFSGSGSGTDYTLTISSLQPEDFATYYCLQHGESPWTFGGGTKLEIKRTVAAPSVFIFPPSDEQLKSGTASVVCLLNNFYPREAKVQWKVDNALQSGNSQESVTEQDSKDSTYSLSSTLTLSKADYEKHKVYACEVTHQGLSSPVTKSFNRGEC
notes: Position is in EU numbering
B13: R255M (antibody)
heavy: not shown
light: DIQMTQSPSSLSASVGDRVTITCKAGQDIKSYLSWYQQKPGKAPKLLIYYATRLADGVPSRFSGSGSGTDYTLTISSLQPEDFATYYCLQHGESPWTFGGGTKLEIKRTVAAPSVFIFPPSDEQLKSGTASVVCLLNNFYPREAKVQWKVDNALQSGNSQESVTEQDSKDSTYSLSSTLTLSKADYEKHKVYACEVTHQGLSSPVTKSFNRGEC
notes: EU numbering, EU N297 = residue 300 of the chain; the sheets number them 2 and 4; also called huCBE11 altered antibody with mutation R255M; copies: 2 + 2
B14: L314K (antibody)
heavy: not shown
light: DIQMTQSPSSLSASVGDRVTITCKAGQDIKSYLSWYQQKPGKAPKLLIYYATRLADGVPSRFSGSGSGTDYTLTISSLQPEDFATYYCLQHGESPWTFGGGTKLEIKRTVAAPSVFIFPPSDEQLKSGTASVVCLLNNFYPREAKVQWKVDNALQSGNSQESVTEQDSKDSTYSLSSTLTLSKADYEKHKVYACEVTHQGLSSPVTKSFNRGEC
notes: EU numbering, EU N297 = residue 300 of the chain; the sheets number them 2 and 4; also called huCBE11 altered antibody with mutation L314K; copies: 2 + 2
B15: D376N (antibody)
heavy: not shown
light: DIQMTQSPSSLSASVGDRVTITCKAGQDIKSYLSWYQQKPGKAPKLLIYYATRLADGVPSRFSGSGSGTDYTLTISSLQPEDFATYYCLQHGESPWTFGGGTKLEIKRTVAAPSVFIFPPSDEQLKSGTASVVCLLNNFYPREAKVQWKVDNALQSGNSQESVTEQDSKDSTYSLSSTLTLSKADYEKHKVYACEVTHQGLSSPVTKSFNRGEC
notes: EU numbering, EU N297 = residue 300 of the chain; the sheets number them 2 and 4; also called huCBE11 altered antibody with mutation D376N; copies: 2 + 2
B16: E345Q (antibody, human IgG1, kappa)
heavy: not shown
light: DIQMTQSPSSLSASVGDRVTITCKAGQDIKSYLSWYQQKPGKAPKLLIYYATRLADGVPSRFSGSGSGTDYTLTISSLQPEDFATYYCLQHGESPWTFGGGTKLEIKRTVAAPSVFIFPPSDEQLKSGTASVVCLLNNFYPREAKVQWKVDNALQSGNSQESVTEQDSKDSTYSLSSTLTLSKADYEKHKVYACEVTHQGLSSPVTKSFNRGEC
notes: EU numbering, EU N297 = residue 300 of the chain; the sheets number them 2 and 4; also called huCBE11 altered antibody with mutation E345Q; copies: 2 + 2
B17: K288D (antibody, human IgG1, kappa)
heavy: not shown
light: DIQMTQSPSSLSASVGDRVTITCKAGQDIKSYLSWYQQKPGKAPKLLIYYATRLADGVPSRFSGSGSGTDYTLTISSLQPEDFATYYCLQHGESPWTFGGGTKLEIKRTVAAPSVFIFPPSDEQLKSGTASVVCLLNNFYPREAKVQWKVDNALQSGNSQESVTEQDSKDSTYSLSSTLTLSKADYEKHKVYACEVTHQGLSSPVTKSFNRGEC
notes: EU numbering, EU N297 = residue 300 of the chain; the sheets number them 2 and 4; also called huCBE11 altered antibody with mutation K288D; copies: 2 + 2
B18: K288M (antibody)
heavy: not shown
light: DIQMTQSPSSLSASVGDRVTITCKAGQDIKSYLSWYQQKPGKAPKLLIYYATRLADGVPSRFSGSGSGTDYTLTISSLQPEDFATYYCLQHGESPWTFGGGTKLEIKRTVAAPSVFIFPPSDEQLKSGTASVVCLLNNFYPREAKVQWKVDNALQSGNSQESVTEQDSKDSTYSLSSTLTLSKADYEKHKVYACEVTHQGLSSPVTKSFNRGEC
notes: EU numbering, EU N297 = residue 300 of the chain; the sheets number them 2 and 4; also called huCBE11 altered antibody with mutation K288M; copies: 2 + 2
B19: A287E (antibody)
heavy: not shown
light: DIQMTQSPSSLSASVGDRVTITCKAGQDIKSYLSWYQQKPGKAPKLLIYYATRLADGVPSRFSGSGSGTDYTLTISSLQPEDFATYYCLQHGESPWTFGGGTKLEIKRTVAAPSVFIFPPSDEQLKSGTASVVCLLNNFYPREAKVQWKVDNALQSGNSQESVTEQDSKDSTYSLSSTLTLSKADYEKHKVYACEVTHQGLSSPVTKSFNRGEC
notes: EU numbering, EU N297 = residue 300 of the chain; the sheets number them 2 and 4; also called huCBE11 altered antibody with mutation A287E; copies: 2 + 2
B20: R255L (antibody)
heavy: not shown
light: DIQMTQSPSSLSASVGDRVTITCKAGQDIKSYLSWYQQKPGKAPKLLIYYATRLADGVPSRFSGSGSGTDYTLTISSLQPEDFATYYCLQHGESPWTFGGGTKLEIKRTVAAPSVFIFPPSDEQLKSGTASVVCLLNNFYPREAKVQWKVDNALQSGNSQESVTEQDSKDSTYSLSSTLTLSKADYEKHKVYACEVTHQGLSSPVTKSFNRGEC
notes: EU numbering, EU N297 = residue 300 of the chain; the sheets number them 2 and 4; also called huCBE11 altered antibody with mutation R255L; copies: 2 + 2
B21: K288E (antibody, human IgG1, kappa)
heavy: not shown
light: DIQMTQSPSSLSASVGDRVTITCKAGQDIKSYLSWYQQKPGKAPKLLIYYATRLADGVPSRFSGSGSGTDYTLTISSLQPEDFATYYCLQHGESPWTFGGGTKLEIKRTVAAPSVFIFPPSDEQLKSGTASVVCLLNNFYPREAKVQWKVDNALQSGNSQESVTEQDSKDSTYSLSSTLTLSKADYEKHKVYACEVTHQGLSSPVTKSFNRGEC
notes: EU numbering, EU N297 = residue 300 of the chain; the sheets number them 2 and 4; also called huCBE11 altered antibody with mutation K288E; copies: 2 + 2

These binders were tested against T1, biotinylated human FcRn-huM4Fc fusion protein (human, biotinylated with BiotinXX sulfosuccinimidyl ester (sites not given)) (assay: FRET competition at pH 5.8: unlabelled competitor mAb against Eu-labelled h5C8 for bhFcRnFc; plotted is mutant IC50/wt IC50).
T1 construct: also called bhFcRnFc; biotinylated Fc/FcRn fusion protein

Binding result, binds:
B1, B2, B3, B4, B5, B6, B7, B8, B9, B10, B11, B12, B13, B14, B15, B16

These binders were tested against T1, biotinylated human FcRn-huM4Fc fusion … (assay: AlphaScreen competition at pH 6.0: antibody in solution against human IgG1 acceptor beads for bhFcRnFc on streptavidin donor beads; plotted is IC50 (ug/ml by paragraph 723, no unit on the sheet)).

Binding result, binds:
B17, B18, B19, B20, B21
